The values that follow come from patent publication US20170101442A1 (CURATORS OF THE UNIVERSITY OF MISSOURI, published 2017).

Ends that are not written are not given here.

The target in assay [1] is T1, insulin-like growth factor 2 receptor (IGF2R) on human hepatic stellate cells LX-2 (human, UniProt P11717 41-2491).
T1 construct: Endogenous IGF2R on LX-2 cells; also called LX-2 cells; LX 2 cells
Briefly: flow cytometry on LX-2 cells; apparent Kd of the dimer against that of the monomer. The procedure: (§1) The cells were incubated with 5 FAM labeled peptides at different concentrations for 1 h at 37° C. The labeled cells were detected by flow cytometry, and the apparent Kd value was calculated using GraphPad Prism. […] The result is consistent with the cellular uptake result depicted in FIGS. 7A-7B, 8A-8G, and 9A-9G.
(In general: A flow cytometer gives signals particle by particle.)

For assay [2], the target named is T1, insulin-like growth factor 2 receptor …. Briefly: flow cytometry, labelled dimeric peptide titrated on LX-2 cells; apparent Kd. The procedure:
as §1

Assay [3] shares this target. Briefly: flow cytometry, 5-FAM labelled peptide titrated on LX-2 cells, 1 h at 37 C; apparent Kd. The protocol: as §1

T1 sequence (P11717 41-2491 R1619G limits assumed): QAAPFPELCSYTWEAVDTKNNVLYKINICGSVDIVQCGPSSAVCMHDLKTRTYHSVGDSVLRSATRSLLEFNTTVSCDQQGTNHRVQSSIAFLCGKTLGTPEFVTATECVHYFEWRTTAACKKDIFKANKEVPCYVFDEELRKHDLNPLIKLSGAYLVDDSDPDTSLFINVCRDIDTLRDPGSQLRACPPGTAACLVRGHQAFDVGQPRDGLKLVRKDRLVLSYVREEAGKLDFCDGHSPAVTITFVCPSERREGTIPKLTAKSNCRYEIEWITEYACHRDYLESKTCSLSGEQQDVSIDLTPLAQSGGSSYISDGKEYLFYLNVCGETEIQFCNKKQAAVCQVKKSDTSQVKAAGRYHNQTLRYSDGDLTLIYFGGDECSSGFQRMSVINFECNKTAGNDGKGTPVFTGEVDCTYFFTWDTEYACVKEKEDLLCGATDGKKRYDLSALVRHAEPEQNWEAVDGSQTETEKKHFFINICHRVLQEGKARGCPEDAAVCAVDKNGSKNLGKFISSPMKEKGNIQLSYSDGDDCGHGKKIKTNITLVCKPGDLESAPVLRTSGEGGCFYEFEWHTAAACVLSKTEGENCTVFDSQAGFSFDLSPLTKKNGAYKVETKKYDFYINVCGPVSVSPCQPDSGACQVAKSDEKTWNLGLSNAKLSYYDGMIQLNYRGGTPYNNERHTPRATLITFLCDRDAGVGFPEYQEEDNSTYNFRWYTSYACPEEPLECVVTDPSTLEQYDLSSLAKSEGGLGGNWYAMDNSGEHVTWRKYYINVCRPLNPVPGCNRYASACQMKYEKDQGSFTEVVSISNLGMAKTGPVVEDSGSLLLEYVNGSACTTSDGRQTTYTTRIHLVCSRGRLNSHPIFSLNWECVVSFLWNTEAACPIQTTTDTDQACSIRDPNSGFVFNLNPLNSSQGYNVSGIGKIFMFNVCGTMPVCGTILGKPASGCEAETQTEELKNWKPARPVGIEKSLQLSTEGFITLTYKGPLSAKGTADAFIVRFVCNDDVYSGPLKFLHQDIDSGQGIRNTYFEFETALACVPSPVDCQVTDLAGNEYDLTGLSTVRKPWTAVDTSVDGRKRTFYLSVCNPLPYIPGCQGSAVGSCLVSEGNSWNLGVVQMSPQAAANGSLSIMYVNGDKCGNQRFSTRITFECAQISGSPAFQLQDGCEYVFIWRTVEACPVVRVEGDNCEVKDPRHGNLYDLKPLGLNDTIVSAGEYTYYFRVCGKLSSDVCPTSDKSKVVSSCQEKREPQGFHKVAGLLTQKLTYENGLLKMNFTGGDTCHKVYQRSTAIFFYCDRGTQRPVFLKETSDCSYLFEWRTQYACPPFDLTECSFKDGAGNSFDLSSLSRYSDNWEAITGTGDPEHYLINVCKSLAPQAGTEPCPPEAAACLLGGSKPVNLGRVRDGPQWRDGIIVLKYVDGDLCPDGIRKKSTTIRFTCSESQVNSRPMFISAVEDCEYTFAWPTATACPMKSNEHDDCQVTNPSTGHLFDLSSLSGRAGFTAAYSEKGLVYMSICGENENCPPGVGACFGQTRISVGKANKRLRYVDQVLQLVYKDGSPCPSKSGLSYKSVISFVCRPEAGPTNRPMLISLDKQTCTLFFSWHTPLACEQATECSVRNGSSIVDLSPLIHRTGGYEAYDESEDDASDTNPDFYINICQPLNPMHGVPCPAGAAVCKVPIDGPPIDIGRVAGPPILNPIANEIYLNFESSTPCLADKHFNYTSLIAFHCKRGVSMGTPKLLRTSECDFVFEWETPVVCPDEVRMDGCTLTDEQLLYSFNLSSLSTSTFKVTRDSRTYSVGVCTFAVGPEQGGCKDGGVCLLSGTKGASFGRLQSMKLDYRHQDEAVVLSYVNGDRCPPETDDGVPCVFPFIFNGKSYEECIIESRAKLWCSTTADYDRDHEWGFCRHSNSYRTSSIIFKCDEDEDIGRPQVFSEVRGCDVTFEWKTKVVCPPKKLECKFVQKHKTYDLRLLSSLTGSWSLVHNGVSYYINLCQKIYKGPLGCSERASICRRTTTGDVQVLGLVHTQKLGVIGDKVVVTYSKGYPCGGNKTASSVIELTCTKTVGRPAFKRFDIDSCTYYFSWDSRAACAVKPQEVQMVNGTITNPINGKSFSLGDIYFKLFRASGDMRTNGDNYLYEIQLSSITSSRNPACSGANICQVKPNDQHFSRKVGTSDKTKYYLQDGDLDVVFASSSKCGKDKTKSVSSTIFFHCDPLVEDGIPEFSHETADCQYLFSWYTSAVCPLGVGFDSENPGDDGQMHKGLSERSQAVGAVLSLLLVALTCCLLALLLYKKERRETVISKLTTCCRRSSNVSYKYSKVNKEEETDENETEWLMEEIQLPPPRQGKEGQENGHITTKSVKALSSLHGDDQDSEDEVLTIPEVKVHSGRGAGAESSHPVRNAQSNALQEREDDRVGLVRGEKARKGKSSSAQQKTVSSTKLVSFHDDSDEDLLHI

B1: dimeric peptide 431 (peptide)
peptide: VHWDFRQWWQPS
modifications: also: dimer: two copies linked via a lysine, imaging agent coupled to the linker
Take B1: the “fold lower apparent Kd against monomeric peptide 431” value in assay [1] was ~9 fold. In addition, the Kd in assay [2] stood at 0.701 µM.

B2: Peptide-431 (peptide)
peptide: VHWDFRQWWQPS
modifications: also: 5-FAM label, position not given here
B2: in assay [3], the Kd was 6.19 µM.
